These results are taken from US10087231B2, “Substitution mutant receptors and their use in an ecdysone receptor-based inducible gene expression system” (Intrexon Corporation, priority 2001, dated 2018).

“Also recorded” adds a separate entry of the source.

In test [1] the test system is GAL4/CfEcR-DEF and pFRLuc in NIH3T3 cells. The format is cell-based, mouse. The settings on record: 0.04-25 μM GS™-E (FIG. 4). The protocol:
(§1) The resulting PCR nucleic acid products encoding the mutant RXR ligand binding domains were then each fused to a VP16 transactivation domain as described in Examples 1.3 and 1.6 above. The VP16/mutant RXR receptor constructs were tested for activity by transfecting them into NIH3T3 cells along with GAL4/CfEcR-DEF and pFRLuc in the presence of non-steroid ligand.
(§2) DNAs corresponding to the various switch constructs outlined in Example 1.1-1.6 were transfected into mouse NIH3T3 cells (ATCC) as follows. Standard methods for culture and maintenance of the cells were followed. […] Superfect™ (Qiagen Inc.) was used as the transfection reagent. For 12-well plates, 4 μl of Superfect™ was mixed with 100 μl of growth medium. One μg of reporter construct and 0.25 μg of each receptor construct of the receptor pair to be analyzed were added to the transfection mix. […] The cells were harvested and reporter activity was assayed.
Cells were harvested 40 hours after adding ligand. […] Twenty μl of lysate were assayed. […]
The cells were harvested and reporter activity was assayed as described above.
As discussed above, a CfEcR-based gene regulation system is ligand dependent when RXRs are used as the heterodimeric partner and ligand independent when USPs are used as the heterodimeric partner. However, reporter gene expression is induced at very high levels when CfUSP is used as the heterodimeric partner. To improve RXR as heterodimeric partner, Applicants have aligned the polypeptide sequences of several USP and RXR ligand binding domains (domains EF) and identified amino acid residues that are different between these two nuclear receptor family members. In particular, Applicants identified residues that are conserved in all USPs but are different in RXRs and mutated these residues in HsRXRβ. […] The cells were harvested and reporter activity was assayed as described above.

Test [2] shares this test system. In words: Reporter gene transactivation of VP16/mutant MmRXRα-EF with GAL4/CfEcR-DEF and pFRLuc, GS™-E ligand. The format is cell-based, mouse. The settings on record: for induction levels / sensitivity to non-steroid ligand: NIH3T3 cells, 0.2, 1 and 10 μM GS™-E; for background levels in the absence of ligand: NIH3T3 cells, VP16/MmRXRα-EF mutant + GAL4/CfEcR-DEF + pFRLuc, no ligand (DMSO). As for the experimental part:
as §1, §2
Cells were harvested 40 hours after adding ligand. […] Twenty μl of lysate were assayed.
DNAs corresponding to the various switch constructs outlined in Example 1, specifically switches 1.1-1.4, were transfected into mouse NIH3T3 cells (ATCC) as follows. […] Two μl of Superfect™ was mixed with 100 μl of growth medium and 50 ng of GAL4/CfEcR-DEF cassette, 50 ng of: VP16/LmUSP-EF, VP16/wild-typeMmRXRα-EF, VP16/MmRXRα-LmUSPchimera-EF, or VP16/mutantMmRXRα-EF, and 200 ng of pFRLuc were added to the transfection mix. […] The cells were harvested and reporter activity was assayed as described above.
(In a reporter assay the amount or activity of a reporter protein is the signal.)

B1: M431L: HsRXRβ ligand binding domain substitution mutant (SEQ ID NO: 2) (protein, listed as Homo sapiens)
chain: MSWAARPPFLPQRHAAGQCGPVGVRKEMHCGVASRWRRRRPWLDPAAAAAAAVAGGEQQTPEPEPGEAGRDGMGDSGRDSRSPDSSSPNPLPQGVPPPSPPGPPLPPSTAPSLGGSGAPPPPPMPPPPLGSPFPVISSSMGSPGLPPPAPPGFSGPVSSPQINSTVSLPGGGSGPPEDVKPPVLGVRGLHCPPPPGGPGAGKRLCAICGDRSSGKHYGVYSCEGCKGFFKRTIRKDLTYSCRDNKDCTVDKRQRNRCQYCRYQKCLATGMKREAVQEERQRGKDKDGDGEGAGGAPEEMPVDRILEAELAVEQKSDQGVEGPGGTGGSGSSPNDPVTNICQAADKQLFTLVEWAKRIPHFSSLPLDDQVILLRAGWNELLIASFSHRSIDVRDGILLATGLHVHRNSAHSAGVGAIFDRVLTELVSKMRDLRMDKTELGCLRAIILFNPDAKGLSNPSEVEVLREKVYASLETYCKQKYPEQQGRFAKLLLRLPALRSIGLKCLEHLFFFKLIGDTPIDTFLMEMLEAPHQLA
Take B1: the transactivation activity result in test [1] is “essentially eliminated transactivation activity”.

B2: E401D: MmRXRα ligand binding domain substitution mutant, glutamic acid to aspartic acid at 401 of SEQ ID NO: 1, fused to VP16 (protein)
chain: MGPKKKRKVAPPTDVSLGDELHLDGEDVAMAHADALDDFDLDMLGDGDSPGPGFTPHDSAPYGALDMADFEFEQMFTDALGIDEYGGEFPANEDMPVEKILEAELAVEPKTETYVEANMGLNPSSPNDPVTNICQAADKQLFTLVEWAKRIPHFSELPLDDQVILLRAGWNELLIASFSHRSIAVKDGILLATGLHVHRNSAHSAGVGAIFDRVLTELVSKMRDMQMDKTELGCLRAIVLFNPDSKGLSNPAEVEALREKVYASLDAYCKHKYPEQPGRFAKLLLRLPALRSIGLKCLEHLFFFKLIGDTPIDTFLMEMLEAPHQAT
As for B2, in test [2], the induction levels entry was “higher induction levels”, the “sensitivity to non-steroid ligand” value is listed as “increased sensitivity to a non-steroid ligand” and the “background levels in the absence of ligand” value (“background levels” below) is reported as “higher background”.

B3: E401D/G429S: double substitution mutant MmRXRα-EF with E401D and G429S; three independent clones analyzed (protein)
chain: MGPKKKRKVAPPTDVSLGDELHLDGEDVAMAHADALDDFDLDMLGDGDSPGPGFTPHDSAPYGALDMADFEFEQMFTDALGIDEYGGEFPANEDMPVEKILEAELAVEPKTETYVEANMGLNPSSPNDPVTNICQAADKQLFTLVEWAKRIPHFSELPLDDQVILLRAGWNELLIASFSHRSIAVKDGILLATGLHVHRNSAHSAGVGAIFDRVLTELVSKMRDMQMDKTELGCLRAIVLFNPDSKGLSNPAEVEALREKVYASLDAYCKHKYPEQPGRFAKLLLRLPALRSISLKCLEHLFFFKLIGDTPIDTFLMEMLEAPHQAT
For B3, in test [2], the induction levels result is on record as “increased induction levels”; the “sensitivity to non-steroid ligand” value is “increased induction levels and ligand sensitivity”; the “background levels” value is “low background levels”. For the same molecule, in test [2] (NIH3T3 cells, 0.2, 1 and 10 μM GS™-E (FIG. 2)), the “performance compared with chimeric vertebrate RXR/invertebrate RXR” value is reported as “work as well as the chimeric RXR”.

B4: G429S: MmRXRα ligand binding domain substitution mutant, glycine to serine at 429 of SEQ ID NO: 1, fused to VP16 (protein)
chain: MGPKKKRKVAPPTDVSLGDELHLDGEDVAMAHADALDDFDLDMLGDGDSPGPGFTPHDSAPYGALDMADFEFEQMFTDALGIDEYGGEFPANEDMPVEKILEAELAVEPKTETYVEANMGLNPSSPNDPVTNICQAADKQLFTLVEWAKRIPHFSELPLDDQVILLRAGWNELLIASFSHRSIAVKDGILLATGLHVHRNSAHSAGVGAIFDRVLTELVSKMRDMQMDKTELGCLRAIVLFNPDSKGLSNPAEVEALREKVYASLEAYCKHKYPEQPGRFAKLLLRLPALRSISLKCLEHLFFFKLIGDTPIDTFLMEMLEAPHQAT
Consider B4, for which, in test [2], the “sensitivity to non-steroid ligand” value is listed as “increased sensitivity to a non-steroid ligand; also recorded: increased sensitivity to ligand” and the “background levels” value is “less background”.
